Test results published in patent publication US20220064322A1 (JACOBIO PHARMACEUTICALS, published 2022).

Columns and labels:
[1] = biological target: T1, cynomolgus CD73 on the cell surface (293T/17-cynoCD73 cells) (cynomolgus (Macaca fascicularis), UniProt P21589 27-547 (human entry)); assay: flow cytometry on 293T/17-Cyno CD73 cells
T1 construct: it is an ecto-domain with a His tag
T1 chain: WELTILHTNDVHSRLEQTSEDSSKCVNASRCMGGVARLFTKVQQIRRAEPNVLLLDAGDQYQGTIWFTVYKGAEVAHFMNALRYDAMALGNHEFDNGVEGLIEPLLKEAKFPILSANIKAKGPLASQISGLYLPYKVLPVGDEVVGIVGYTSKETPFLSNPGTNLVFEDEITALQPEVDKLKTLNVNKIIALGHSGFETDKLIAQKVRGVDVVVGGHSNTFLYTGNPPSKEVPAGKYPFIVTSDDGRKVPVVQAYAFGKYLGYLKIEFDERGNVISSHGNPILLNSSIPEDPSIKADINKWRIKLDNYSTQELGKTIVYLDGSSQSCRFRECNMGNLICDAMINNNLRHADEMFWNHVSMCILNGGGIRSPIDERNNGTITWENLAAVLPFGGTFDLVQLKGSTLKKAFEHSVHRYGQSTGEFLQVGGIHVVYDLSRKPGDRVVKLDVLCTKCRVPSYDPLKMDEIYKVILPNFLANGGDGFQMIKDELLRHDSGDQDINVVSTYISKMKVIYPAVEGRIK
Method: (§1) 2×10⁶ cells resuspended in PBS buffer were distributed into 96-well plates and incubated with gradient diluted humanized antibodies for 1 h at refrigerator 4° C. or on ice, then the cells was centrifuged for 3 min 1500 rpm at 4° C. and washed three times by PBS, and diluted APC-labeled goat anti-human polyclonal antibody (Biolegend) were incubated for 30 min at refrigerator 4° C. Finally, the cells were washed three times with PBS as described above and analyzed on MACSQuant flow cytometer. GraphPad Prism software was used to generate data graphs and statistical affinity data.
(§2) The samples to be tested were incubated for 1 h at 4° C. after gradient dilution. After washing, 100 μL of APC-labeled secondary antibody was added to each well and incubated for 30 min. After washing, detecting on machine and the fluorescence value was read. GraphPad Prism software was used to generate data graphs and statistical affinity data.

[2] = biological target: T1, cynomolgus CD73 on the cell surface …; assay: flow cytometry on 293T/17 cells expressing cynoCD73, APC-labelled goat anti-human antibody, MFI
Method: as §1, §2

[3] = biological target: T2, human CD73 ecto-domain recombinant protein (huCD73) (human, UniProt P21589 27-547); assay: indirect ELISA, plate coated with 1 ug/ml huCD73 recombinant protein, HRP-labelled secondary antibody, RFU
T2 construct: also called soluble huCD73; soluble recombinant CD73
T2 sequence: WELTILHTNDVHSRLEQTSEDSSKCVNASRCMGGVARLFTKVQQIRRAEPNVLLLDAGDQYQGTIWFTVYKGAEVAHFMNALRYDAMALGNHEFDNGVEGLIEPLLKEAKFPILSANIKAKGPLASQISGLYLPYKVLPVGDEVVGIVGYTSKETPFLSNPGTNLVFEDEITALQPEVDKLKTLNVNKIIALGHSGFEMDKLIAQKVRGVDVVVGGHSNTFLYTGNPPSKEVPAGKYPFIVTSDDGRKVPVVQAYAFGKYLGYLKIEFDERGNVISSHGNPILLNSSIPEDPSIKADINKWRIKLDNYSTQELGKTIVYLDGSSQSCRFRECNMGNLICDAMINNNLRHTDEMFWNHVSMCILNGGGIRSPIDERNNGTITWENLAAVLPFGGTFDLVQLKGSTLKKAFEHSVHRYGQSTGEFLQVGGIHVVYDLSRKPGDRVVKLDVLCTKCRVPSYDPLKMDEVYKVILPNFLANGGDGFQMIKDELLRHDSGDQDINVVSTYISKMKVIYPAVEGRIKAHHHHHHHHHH
Method: (§3) Incubated with gradient diluted 100 μL/well of antibodies for 1 h at room temperature. After the plates were washed 3 times with 200 ul/well of PBST, 100 ul of diluted HRP-labeled secondary antibody at a ratio of 1:5000 was added to each well, and the plates were incubated for 1 hour at room temperature. The plates were washed 3 times with 200 ul/well of PBST, 100 ul of TMB was added to each well and reacted for 5 minutes at room temperature in the dark. […] read the OD value. The affinity of humanized antibodies and parent antibodies were similar to the antigen (table 9).

[4] = biological target: T1, cynomolgus CD73 on the cell surface …; assay: cell-based or functional assay
[5] = biological target: T2, human CD73 ecto-domain recombinant …; assay: indirect ELISA, coated huCD73 recombinant protein, curve fit
Method: as §3

[6] = biological target: T1, cynomolgus CD73 on the cell surface …; assay: flow cytometry on 293T/17-Cyno CD73 cells, curve fit
Method: as §1, §2

[7] = biological target: T2, human CD73 ecto-domain recombinant …; assay: indirect ELISA, coated huCD73 recombinant protein
Method: as §3

B1: JB94H1L3 (antibody, human IgG1, kappa)
heavy: not shown
light: DIQMTQSPSSLSASVGDRVTITCKASQDINTYLSWFQQKPGKSPKSLIYRSNILVDGVPSRFSGSGSGQDYTLTISSLQPEDFAIYYCLQYDDFPYTFGQGTKLEIKRTVAAPSVFIFPPSDEQLKSGTASVVCLLNNFYPREAKVQWKVDNALQSGNSQESVTEQDSKDSTYSLSSTLTLSKADYEKHKVYACEVTHQGLSSPVTKSFNRGEC
notes: Humanized antibody of the 94 clone, human IgG1 / kappa
- EC50 [1]: 5.42 nM
- EC50 (read off the curve) [2]: ~5 nM
- EC50 (read off the curve) [3]: ~0.03 µg/mL
- IC50, blockade of 5'exonuclease activity on 293T/17-Cyno CD73 cells [4]: 0.017 nM
- Bottom [5]: 48.7 OD value
- Top [5]: 8290 OD value
- Bottom [6]: 1.51 fluorescence
- Top [6]: 78.7 fluorescence
- EC50 [7]: 0.0289 nM
